Assay results taken from PMC5661634.

What was measured:
[1] = target: mouse SNX5 PX domain (residues 20–180) (mouse) (UniProt Q9D8U8); test: SPR; Biacore T100; PX5 immobilised on a CM5 chip, GST-IncE 109-132 WT or mutants flowed over; 25 °C; 20 mM Na HEPES pH 7.5, 200 mM NaCl, 0.005% Triton-X100; 1:1 steady state analysis
[2] = target: mouse SNX5 PX domain (residues 20–180) (mouse) (UniProt Q9D8U8); test: SPR; Biacore T100; PX5 immobilised on a CM5 chip, IncE 109-132 peptide flowed over (33 nM-2.7 uM); 25 °C; 20 mM Na HEPES pH 7.5, 200 mM NaCl, 0.005% Triton-X100; 1:1 fitting model

Chain of UniProt Q9D8U8 (Q9D8U8 20-180): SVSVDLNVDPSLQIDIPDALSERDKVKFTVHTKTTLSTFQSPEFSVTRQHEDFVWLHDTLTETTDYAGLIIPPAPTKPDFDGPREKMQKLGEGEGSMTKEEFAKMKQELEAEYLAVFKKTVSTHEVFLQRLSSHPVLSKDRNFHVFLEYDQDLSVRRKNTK

Row | Substance | Kd [1] | Kd [2]
1 | GST-IncE^109–132 WT (domain or fragment) | 0.39 µM | –
2 | GST-IncE^109–132 K118A (domain or fragment) | 0.79 µM | –
3 | GST-IncE^109–132 V127A (domain or fragment) | 0.98 µM | –
4 | IncE^109–132 peptide | – | 0.54 µM
